Key:
[1] = biological target: T1, human alpha2-Antiplasmin (human, UniProt P08697 40-491); test: ELISA, coated antigen, 3rd exp.; 3rd exp.
T1 construct: Bought (antibodies online, ABIN2544306); also called human A2AP; a2AP
T1 sequence: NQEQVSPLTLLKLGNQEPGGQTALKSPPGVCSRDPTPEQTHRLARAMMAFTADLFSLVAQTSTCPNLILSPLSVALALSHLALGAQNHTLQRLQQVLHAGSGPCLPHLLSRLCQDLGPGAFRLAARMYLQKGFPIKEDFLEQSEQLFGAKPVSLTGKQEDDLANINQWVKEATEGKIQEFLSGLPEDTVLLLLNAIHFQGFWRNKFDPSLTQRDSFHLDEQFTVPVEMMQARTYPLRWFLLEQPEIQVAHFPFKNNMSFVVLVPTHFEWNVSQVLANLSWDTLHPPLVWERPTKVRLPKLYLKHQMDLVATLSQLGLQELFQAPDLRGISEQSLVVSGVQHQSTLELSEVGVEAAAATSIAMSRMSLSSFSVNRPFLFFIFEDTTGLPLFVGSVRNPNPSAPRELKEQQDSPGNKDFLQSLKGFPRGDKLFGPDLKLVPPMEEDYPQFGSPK
Method: A standard ELISA format was used for analyzing the binding affinity of Fabs of this invention to human and rabbit alpha-2-Antiplasmin, respectively. Antigens were coated to black 384 well Maxisorp microtiter plates (Nunc; catalogue number 460518), diluted to a concentration of 1 μg/ml in 1× Coating Buffer (Candor Bioscience; catalogue number 121125). Plates were incubated overnight at 4° C. After overnight incubation, plates were washed 2× with 50 μl/well using PBS+0.05% Tween 20. Following this, 50 μl/well of blocking buffer (Smart Block; Candor Bioscience; catalogue number 113500) was added and the plates were incubated for 1 hour at room temperature. Afterwards, plates were washed for 3× using […] PBS+0.05% Tween 20 buffer. Fabs of this invention were added at different concentrations in a final volume of 30 μl/well. Plates were incubated for 1 hour at room temperature. Following this incubation step, plates were washed for 3× using 50 μl/well of a PBS+0.05% Tween 20 buffer. For the detection of bound Fabs and full-length antibodies, the anti-Human Lambda Light Chains (Bound and Free)—Peroxidase antibody (Sigma; catalogue number A5175) was diluted by the factor of 1:10.000 in 10% Blocking Buffer. […]
For measurement, the Infinite f500 reader (Tecan) was used. Measurement mode: Fluorescence; Top reading; Ex 535 nm; Em 590 nm. […]

[2] = biological target: T1, human alpha2-Antiplasmin; test: cell-based or functional assay
[3] = biological target: T1, human alpha2-Antiplasmin; test: cell-based or functional assay; remark: listed apart in the source
[4] = biological target: human Plasmin (human, UniProt P00747 97-580; P00747 581-810, limits assumed); test: cell-based or functional assay
[5] = biological target: T1, human alpha2-Antiplasmin; test: ELISA, coated antigen, 1st exp.
Outline: (§1)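 Human alpha2-antiplasmin coated at 1 μg/ml overnight at 4° C, blocked, then incubated 1 h at room temperature with Fabs at different concentrations. Bound Fab detected with peroxidase anti-human lambda light chain antibody and Amplex red/H2O2, fluorescence Ex 535/Em 590 nm; dose-response in quadruplicate, independent experiments.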

[6] = biological target: T1, human alpha2-Antiplasmin; test: ELISA, coated antigen, 2nd exp.
Outline: as §1

Chain of human Plasmin (P00747 97-580 limits assumed, chain 1 of 2): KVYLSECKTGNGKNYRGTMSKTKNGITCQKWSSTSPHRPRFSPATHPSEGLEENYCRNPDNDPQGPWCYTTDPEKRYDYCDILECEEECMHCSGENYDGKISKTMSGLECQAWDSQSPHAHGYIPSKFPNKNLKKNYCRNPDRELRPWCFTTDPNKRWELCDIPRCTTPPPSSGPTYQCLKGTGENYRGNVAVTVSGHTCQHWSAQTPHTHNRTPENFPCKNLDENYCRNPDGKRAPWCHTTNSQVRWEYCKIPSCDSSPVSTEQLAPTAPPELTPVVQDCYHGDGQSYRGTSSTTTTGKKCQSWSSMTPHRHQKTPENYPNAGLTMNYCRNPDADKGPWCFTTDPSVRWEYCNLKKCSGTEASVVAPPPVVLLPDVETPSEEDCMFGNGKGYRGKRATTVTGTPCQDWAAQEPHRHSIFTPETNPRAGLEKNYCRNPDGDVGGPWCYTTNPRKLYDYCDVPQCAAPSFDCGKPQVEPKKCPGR
Chain of human Plasmin (P00747 581-810 limits assumed, chain 2 of 2): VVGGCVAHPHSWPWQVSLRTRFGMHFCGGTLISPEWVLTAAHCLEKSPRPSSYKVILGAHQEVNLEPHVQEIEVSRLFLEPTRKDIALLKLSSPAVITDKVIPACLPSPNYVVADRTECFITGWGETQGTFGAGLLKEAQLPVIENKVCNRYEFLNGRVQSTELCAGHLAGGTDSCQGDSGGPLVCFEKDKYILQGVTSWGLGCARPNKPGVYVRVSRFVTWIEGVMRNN

B1: TPP-14303 hIgG1 (antibody, V domains shown)
VH: EVQLLESGGGLVQPGGSLRLSCAASGFTFDDYAMSWVRQAPGKGLEWVSAIGTGGGTYYADSVKGRFTISRDNSKNTLYLQMNSLRAEDTAVYYCAREDYDSSGYYHLDYWGQGTLVTVSS
VL: QSVLTQPPSASGTPGQRVTISCTGSSSNIGATYDVHWYQQLPGTAPKLLIYSNNQRPSGVPDRFSGSKSGTSASLAISGLRSEDEADYYCAAWDWSLSGWVFGGGTKLTVLG
Question: Which results are given for B1?
Answer: EC50 [1]: 27 nM; function blocking activity [IC50 M], 1st exp. [2]: 85 nM; function blocking activity [IC50 M], 2nd exp. [2]: 89 nM; function blocking activity [IC50 M], 3rd exp. [2]: 94 nM; EC50 (read off the curve); function blocking assay (Example 4), RFU of plasmin substrate cleavage [3]: ~80 nM; IC50 [M], inhibition of plasmin proteolytic activity [4]: > 1e-05 M; EC50 [5]: 24 nM; EC50 [6]: 29 nM

From patent US20240010750A1 (Bayer, published 2024)
